This passage reports 10%-maximal effective concentration (EC10), calculated from an in vitro model using THP-1 cells results from patent US20250319154A1.

This assay addresses leukocyte function antigen (LFA-1) on THP-1 cells (human) (UniProt P20701). Kind of assay: cell-based or functional assay.

Sequence of leukocyte function antigen (LFA-1) on THP-1 cells (human) (P20701 26-1170, chain 1 of 2): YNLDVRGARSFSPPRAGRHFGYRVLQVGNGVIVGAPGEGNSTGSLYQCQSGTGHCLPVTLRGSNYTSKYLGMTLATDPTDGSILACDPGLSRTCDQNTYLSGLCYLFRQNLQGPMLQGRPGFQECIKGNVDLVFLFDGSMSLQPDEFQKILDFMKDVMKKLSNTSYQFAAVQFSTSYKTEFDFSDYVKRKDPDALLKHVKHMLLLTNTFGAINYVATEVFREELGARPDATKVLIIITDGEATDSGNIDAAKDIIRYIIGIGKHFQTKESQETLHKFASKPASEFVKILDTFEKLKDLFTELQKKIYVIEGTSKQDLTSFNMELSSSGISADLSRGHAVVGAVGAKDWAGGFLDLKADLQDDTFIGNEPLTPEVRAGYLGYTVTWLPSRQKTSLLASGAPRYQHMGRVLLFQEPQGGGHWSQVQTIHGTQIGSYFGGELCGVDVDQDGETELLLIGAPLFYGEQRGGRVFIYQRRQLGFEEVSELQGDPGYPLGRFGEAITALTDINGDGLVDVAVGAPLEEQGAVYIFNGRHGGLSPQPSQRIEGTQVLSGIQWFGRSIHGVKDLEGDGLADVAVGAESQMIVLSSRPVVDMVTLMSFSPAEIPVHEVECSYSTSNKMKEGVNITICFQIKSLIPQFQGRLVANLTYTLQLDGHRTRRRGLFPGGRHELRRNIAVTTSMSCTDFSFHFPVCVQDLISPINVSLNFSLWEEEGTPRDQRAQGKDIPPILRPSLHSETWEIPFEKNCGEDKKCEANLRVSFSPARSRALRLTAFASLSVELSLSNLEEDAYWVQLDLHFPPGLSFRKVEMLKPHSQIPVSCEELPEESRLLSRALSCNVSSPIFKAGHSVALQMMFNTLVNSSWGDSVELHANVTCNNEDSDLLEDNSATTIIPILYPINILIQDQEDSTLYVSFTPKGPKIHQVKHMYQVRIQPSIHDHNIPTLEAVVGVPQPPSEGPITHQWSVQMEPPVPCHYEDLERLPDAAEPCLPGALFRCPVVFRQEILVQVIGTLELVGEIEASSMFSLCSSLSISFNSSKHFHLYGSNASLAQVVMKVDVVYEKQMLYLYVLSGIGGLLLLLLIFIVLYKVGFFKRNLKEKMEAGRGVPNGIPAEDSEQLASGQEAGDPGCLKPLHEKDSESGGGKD
Sequence of leukocyte function antigen (LFA-1) on THP-1 cells (human) (P05107 23-769, chain 2 of 2, further chain): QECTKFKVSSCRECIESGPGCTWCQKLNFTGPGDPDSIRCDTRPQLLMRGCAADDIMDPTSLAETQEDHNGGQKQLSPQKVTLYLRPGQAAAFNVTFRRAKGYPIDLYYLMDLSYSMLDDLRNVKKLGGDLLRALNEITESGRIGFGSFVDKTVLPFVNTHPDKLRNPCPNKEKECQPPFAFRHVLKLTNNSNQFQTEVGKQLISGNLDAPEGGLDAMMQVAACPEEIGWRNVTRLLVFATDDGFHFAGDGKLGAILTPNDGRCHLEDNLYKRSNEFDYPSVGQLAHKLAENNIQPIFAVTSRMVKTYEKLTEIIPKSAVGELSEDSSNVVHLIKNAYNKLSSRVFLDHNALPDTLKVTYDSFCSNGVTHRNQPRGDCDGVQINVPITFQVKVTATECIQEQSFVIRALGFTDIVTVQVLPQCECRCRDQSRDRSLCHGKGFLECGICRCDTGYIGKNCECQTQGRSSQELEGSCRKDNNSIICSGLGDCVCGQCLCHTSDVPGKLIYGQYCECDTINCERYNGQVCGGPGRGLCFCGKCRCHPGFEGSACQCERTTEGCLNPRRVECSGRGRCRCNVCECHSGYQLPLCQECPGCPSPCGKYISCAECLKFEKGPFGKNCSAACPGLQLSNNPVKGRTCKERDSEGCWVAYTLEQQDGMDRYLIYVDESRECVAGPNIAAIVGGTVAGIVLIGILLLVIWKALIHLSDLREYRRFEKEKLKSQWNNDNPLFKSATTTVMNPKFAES

For “Leukotoxin (LtxA) polypeptide isolated from Aggregatibacter actinomycetemcomitans (from UniProt P16462 1-1055)”, the 10%-maximal effective concentration (EC10), calculated from an in vitro model using THP-1 cells was 0.02 µg/mL.
